# B1: 4H8-E3: Mouse IgM monoclonal antibody against the human iRhom2 juxtamembrane domain adjacent to TMD1; HC VD SEQ ID NO 33, LC VD SEQ ID NO 40 (antibody, V domains shown)
# VH: EVQLQQSGPELVKPGASVKISCKASGYTFTDYYMNWVKQSHGKSLEWIGDINPNNGGTSYNQKFKGKATLTVDKSSNTAYMEFRSLTSEDSAVYYCARRGYYGVDYWGQGTTLTVSS
# VL: NIVMTQSPKSMSMSVGERVTLNCKASENVGTYVSWYQQKPEQSPKLLIFGASNRYTGVPDRFIGSGFATDFTLTISSVQAEDLADYHCGQSYSYPYTFGGGTKLEIK
# modifications: IgM constant regions; antibody sequence
# System: LPS-induced release of endogenous TNFα from human THP-1 macrophage cells
# Test: ELISA-based TNFα release assay, IC50 determination (Example 12)
# Type: cell-based
# Conditions: titration 80.00 to 0.08 μg/ml final; LPS 50 ng/ml, 3 hours
# Method: Expanding the functional analyses, ELISA-based TNFα release assays were performed to determine the half maximal inhibitory concentration (IC50) for the purified antibody 4H8-E3 of the invention on LPS-induced release of endogenous TNFα from human THP-1 macrophage cells.
# In brief, on day 1, Nunc black MaxiSorp® 96-well plates (Thermo Fisher Scientific, USA) were coated overnight with 100 μl per well of mouse anti-human TNFα capture antibody (provided as part of the DuoSet ELISA kit) at 4 μg/ml TBS at 4° C. On day 2, the capture antibody solution was removed and MaxiSorp® plates were blocked with 300 μl per well of TBS, 1% BSA at room temperature for 3 hours. […] Using an infinite M1000 PRO (Tecan Group, Switzerland) microplate reader, the fluorescence of each well was collected at an excitation wavelength of 435 nm and an emission wavelength of 555 nm.
molecule,measurement,value
B1,inhibition of TNFα release from THP-1 cells on titration,concentration-dependent inhibition

# Reference: US20220204610A1, “PROTEIN BINDERS FOR IRHOM2” (NEW YORK SOCIETY FOR THE RELIEF OF THE RUPTURED AND …, priority 2019, published 2022)
